The target of this experiment is recombinant Ena3A (major subunit of L-ENA fibers) (Bacillus paranthracis NVH 0075-95). Description: cryo-EM structure.

As a reminder, the stoichiometry N is a count of units in the complex or per binding partner.

As for “recombinant Ena3A (major subunit of L-ENA fibers) (natural protein)”, the stoichiometry N amounted to 7.
